How the values were obtained:
[1] = test system: mouse fibroblast cell line NIH/3T3; test: Promotion of fibroblast growth by VHH (homodimer), cell growth assay; format: cell-based; details: NIH/3T3, serum-free, 2 days, 2-fold dilution series, 4-parameter fit; read-out: EC50 of the growth of cultured fibroblasts
Procedure: A mouse fibroblast cell line NIH/3T3 was used as a fibroblast. A mouse fibroblast cell line NIH/3T3 was obtained from ECACC through a domestic agent, subjected to extended culture, then cryopreserved at −80° C. using CellBanker1 plus (manufactured by ZENOAQ), and used. […]
The cell growth assay for bFGF was performed according to the following procedure. […] The plate was further left to stand for 8 minutes, and then the luminescence in each well was measured with a Synergy HTX plate reader (manufactured by BioTek) with a sensitivity set (Gain) of 200 and a measurement time of 1 s/well. […]
The measurement was performed at three points at each concentration of the test substance, and the conditions were set such that for the measurement at a single concentration, 100 ng/mL of bFGF was set as a positive control and a condition of no addition was set as a negative control. […] The EC50 measurement data were fitted to 4-parameter fit according to an ordinary method by control software attached to a plate reader, and an EC50 value was calculated.

[2] = test system: human bone marrow-derived MSC; test: MSC: evaluation of bone differentiation induction (Alizarin Red); format: cell-based; details: MSC after 3 passages with 20 ng/ml additive, 14 days induction
Procedure: A third passage was performed in a CellBIND® 24-well transparent multi-well plate, and then at a time of reaching 80% to 90% confluence, medium exchange was performed in MesenCult Stem Cell Osteogenic Differentiation Medium (PromoCell, C/N: C-28013) which is a medium for differentiation induction. Furthermore, for the cells as a negative control, D-MEM (10% FBS or 20% FBS) which is a culture medium was used for the medium exchange. The medium exchange was carried out every 2 to 4 days.
After 14 days from seeding, a 4% paraformaldehyde/phosphate buffer solution was added thereto at 500 μL/well, and the cells were left to stand for 2 hours or longer. After the immobilization, purified water was added thereto at 500 μL/well. 500 μL of an Alizarin Red solution (PG Research Co., Ltd., ARD-SET) was added to each well, which was left to stand at room temperature for 30 minutes. The Alizarin Red solution was removed, and washing was performed three times or more with purified water until the washing water became transparent. The water was completely removed, and the coating film was dried, and observed with a microscope to acquire an image. 500 μL of a calcifide nodule dissolution solution (PG Research Co., Ltd., ARD-SET) was added into the well and distributed for 10 minutes to elute the dye. 100 μL of the eluate was transferred to a 96-well plate and the absorbance at 450 nm was measured. […]

[3] = Thermal stability by protein thermal shift assay (SYPRO Orange); format: physicochemical; details: 0.5 mg/mL in D-PBS, 25° C. to 95° C., 1° C./min
Procedure: The Td is evaluated by a Td value at the time of raising the temperature from 25° C. to 95° C. (temperature rising rate: 1° C./min) under the solution conditions of a protein concentration (0.5 mg/mL) in a D-PBS solution (including 0.2 g of KH2PO4, 1.15 g of Na2HPO4, 0.2 g of KCl, and 8 g of NaCl per liter of the aqueous solution, pH 7.4).
The thermal stability of VHH was measured by a protein thermal shift assay method.
In order to confirm the thermal stability of the VHH monomer Clone #1 and the tandem dimer #1L4, the denaturation temperature (Td) was measured by a protein thermal shift assay method. […] In addition, in order to measure the fluorescence background, a control including no protein was also prepared at the same time, and dispensed into an 8-strip PCR tube (manufactured by Nippon Genetics Co., Ltd.). This tube was set in a real-time PCR measuring device, QuantStudio 3 (manufactured by Thermo Fisher Scientific, Inc.), and a change in fluorescence intensity in a range of 25° C. to 95° C. was measured under the condition of 1° C./min using a fluorescence filter for ROX measurement. After the measurement, Td was calculated using the value obtained by subtracting the background value from the measured value.

| Molecule | EC50 [1] [nM] | bone differentiation (Alizarin Red) [2] | denaturation temperature (Td) [3] [°C] |
| --- | --- | --- | --- |
| FGF2: fibroblast growth factor (basic), human, recombinant (154aa), positive control; SEQ ID NO: 58 [reference compound] | 5.1 | Differentiation was similarly recognized | – |
| VHH Clone #1: alpaca-derived VHH single-domain antibody (monomer) binding FGFR1, amino acid sequence SEQ ID NO: 17 (protein, VHH_Clone_#1) VHH: QLQLVESGGGSVQAGGSLRLSCAASRSLSRFNVWTWYRQAPVKQRELVASITKSGDTNYAESVKGRFIISRDDDKNTVYLQMNNLKSEDTGIYYCAGSYYSGSYLYPSPGGFSVWGQGTQVTVSS | – | – | 74.1 |
| #1-L4-#1: dimer of VHH #1 with linker L4 (GSEGKSSGSGSESKST), SEQ ID NO: 23 (protein, #1-L4-#1) VHH: QLQLVESGGGSVQAGGSLRLSCAASRSLSRFNVWTWYRQAPVKQRELVASITKSGDTNYAESVKGRFIISRDDDKNTVYLQMNNLKSEDTGIYYCAGSYYSGSYLYPSPGGFSVWGQGTQVTVSSGSEGKSSGSGSESKSTQLQLVESGGGSVQAGGSLRLSCAASRSLSRFNVWTWYRQAPVKQRELVASITKSGDTNYAESVKGRFIISRDDDKNTVYLQMNNLKSEDTGIYYCAGSYYSGSYLYPSPGGFSVWGQGTQVTVSS | 11.6 | Differentiation was similarly recognized | 75.4 |
